Molecular target: T1, NOX2 (catalytic subunit of NOX2 NADPH oxidase) (mouse, UniProt Q61093 2-570)
T1 construct: whole, on cells; Endogenous protein in mouse alveolar macrophages, BMDMs and RAW264.7 cells; also called gp91phox; CYBB
T1 sequence (looked up): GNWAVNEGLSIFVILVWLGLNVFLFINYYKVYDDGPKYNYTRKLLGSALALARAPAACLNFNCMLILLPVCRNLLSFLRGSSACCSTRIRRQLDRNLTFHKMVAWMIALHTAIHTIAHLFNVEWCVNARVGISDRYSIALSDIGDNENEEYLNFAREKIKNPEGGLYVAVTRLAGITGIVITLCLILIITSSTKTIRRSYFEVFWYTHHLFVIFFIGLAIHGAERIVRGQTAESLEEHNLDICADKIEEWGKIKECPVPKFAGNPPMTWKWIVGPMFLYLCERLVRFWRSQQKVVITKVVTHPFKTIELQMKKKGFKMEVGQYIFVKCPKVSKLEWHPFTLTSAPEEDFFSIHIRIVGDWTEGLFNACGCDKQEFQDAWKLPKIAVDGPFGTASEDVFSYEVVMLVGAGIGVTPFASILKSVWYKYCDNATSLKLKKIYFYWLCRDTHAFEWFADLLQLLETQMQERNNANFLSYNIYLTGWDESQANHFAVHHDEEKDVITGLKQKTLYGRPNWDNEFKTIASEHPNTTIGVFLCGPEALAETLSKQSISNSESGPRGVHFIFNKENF
Test: confocal immunofluorescence of NOX2 and p47phox association (NOX2 oxidase assembly) in HKx31-infected mouse macrophages

B1: p47phox regulatory subunit of NOX2 oxidase (other, mouse, UniProt Q09014 1-390, looked up)
chain: MGDTFIRHIALLGFEKRFIPSQHYVYMFLVKWQDLSEKVVYRKFTEIYEFHKMLKEMFPIEAGEIHTENRVIPHLPAPRWFDGQRAAESRQGTLTEYFNGLMGLPVKISRCPHLLDFFKVRPDDLKLPTDSQAKKPETYLVPKDGKNNVADITGPIILQTYRAIADYEKSSGTEMTVATGDVVDVVEKSESGWWFCQMKTKRGWVPASYLEPLDSPDEAEDPDPNYAGEPYVTIKAYAAVEEDEMSLSEGEAIEVIHKLLDGWWVVRKGDITGYFPSMYLQKAGEEITQAQRQIRGRGAPPRRSTIRNAQSIHQRSRKRLSQDTYRRNSVRFLQQRRRPGRPGPLSTDGTKDNPSTPRVKPQPAVPPRPSSDLILHRCTESTKRKLTSAV
notes: whole, on cells; Cytosolic subunit, endogenous in the cells
binding result: binds
